# Numbered stars: 1 amine (or outer) side, 2 acyl side, 3 side chain; on linkers, the order of the positions; unused ones are H or OH. Square brackets hold non-standard residues; d marks the D form. β3hPhe(2R-OH) = O=C([C@H](O)[C@H](Cc1ccccc1)N[*:1])[*:2]
# Molecular target: T1, recombinant human BACE-1 (rhBACE-1) (Homo sapiens, UniProt P56817)
# T1 construct: expressed as only an extracellular region (amino acid 1-460 residues) of recombinant human β-secretase; His tag (C); purchased R&D systems (Minneapolis, Minn.); host or cells: murine myeloma cell line NS0
# Assay: BACE1 inhibitory activity, reverse phase HPLC quantitation of N-terminal fragment of fluorogenic substrate
# Assay type: biochemical
# Settings: 1 μL of inhibitor solution in DMSO (100 μM) in 50 μL reaction; MES buffer pH 5.0; 37° C., 60 minutes
# In short: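 rhBACE-1 ectodomain (residues 1-460, C-terminal His tag, NS0-expressed) in MES buffer pH 5.0 with inhibitor (diluted in DMSO, 100 μM solution) and MCA/DNP fluorogenic peptide (250 μM stock), 60 min at 37 °C, TCA stop. N-terminal fragment quantified by reverse-phase HPLC fluorescence (Ex 328/Em 393 nm); inhibition % derived.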
# T1 sequence (P56817 22-460 limits assumed): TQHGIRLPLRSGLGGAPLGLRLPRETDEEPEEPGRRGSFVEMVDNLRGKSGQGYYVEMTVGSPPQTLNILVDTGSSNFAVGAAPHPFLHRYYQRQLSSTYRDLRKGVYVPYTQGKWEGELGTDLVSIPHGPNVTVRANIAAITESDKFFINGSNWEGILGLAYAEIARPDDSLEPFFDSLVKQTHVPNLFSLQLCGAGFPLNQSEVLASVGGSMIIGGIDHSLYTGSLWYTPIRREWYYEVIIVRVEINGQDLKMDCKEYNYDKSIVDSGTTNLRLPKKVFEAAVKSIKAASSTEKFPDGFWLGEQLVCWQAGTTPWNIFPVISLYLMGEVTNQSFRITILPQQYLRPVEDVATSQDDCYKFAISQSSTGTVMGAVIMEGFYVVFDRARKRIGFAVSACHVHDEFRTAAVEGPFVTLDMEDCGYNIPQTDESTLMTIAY
row,Substance,Activity (BACE1 inhibition %) [%]
1,H-Glu-Val-Leu-Pns-Asp-Ala-Glu-Gly-OH (H-EVL[β3hPhe(2R-OH)]DAEG-OH; SMILES CC(C)C[C@H](NC(=O)[C@@H](NC(=O)[C@@H](N)CCC(=O)O)C(C)C)C(=O)N[C@@H](Cc1ccccc1)[C@@H](O)C(=O)N[C@@H](CC(=O)O)C(=O)N[C@@H](C)C(=O)N[C@@H](CCC(=O)O)C(=O)NCC(=O)O) [Example 45],66.79
2,H-Glu-Val-Leu-Pns-Asp-Ala-Glu-OH [Example 32],71.60
3,H-Glu-Val-Leu-Pns-Asp-Ala-Glu-Phe-OH (H-EVL[β3hPhe(2R-OH)]DAEF-OH; SMILES CC(C)C[C@H](NC(=O)[C@@H](NC(=O)[C@@H](N)CCC(=O)O)C(C)C)C(=O)N[C@@H](Cc1ccccc1)[C@@H](O)C(=O)N[C@@H](CC(=O)O)C(=O)N[C@@H](C)C(=O)N[C@@H](CCC(=O)O)C(=O)N[C@@H](Cc1ccccc1)C(=O)O) [Example 7],89.65
4,H-Glu-Val-Leu-Pns-Asp-Ala-Leu-Phe-OH (H-EVL[β3hPhe(2R-OH)]DALF-OH; SMILES CC(C)C[C@H](NC(=O)[C@H](C)NC(=O)[C@H](CC(=O)O)NC(=O)[C@H](O)[C@H](Cc1ccccc1)NC(=O)[C@H](CC(C)C)NC(=O)[C@@H](NC(=O)[C@@H](N)CCC(=O)O)C(C)C)C(=O)N[C@@H](Cc1ccccc1)C(=O)O) [Example 30],56.57
5,H-Glu-Val-Leu-Pns-Asp-Ala-Phe-Phe-OH (H-EVL[β3hPhe(2R-OH)]DAFF-OH; SMILES CC(C)C[C@H](NC(=O)[C@@H](NC(=O)[C@@H](N)CCC(=O)O)C(C)C)C(=O)N[C@@H](Cc1ccccc1)[C@@H](O)C(=O)N[C@@H](CC(=O)O)C(=O)N[C@@H](C)C(=O)N[C@@H](Cc1ccccc1)C(=O)N[C@@H](Cc1ccccc1)C(=O)O) [Example 31],66.56
6,H-Glu-Val-Leu-Pns-Asp-Ala-Val-Phe-OH (H-EVL[β3hPhe(2R-OH)]DAVF-OH; SMILES CC(C)C[C@H](NC(=O)[C@@H](NC(=O)[C@@H](N)CCC(=O)O)C(C)C)C(=O)N[C@@H](Cc1ccccc1)[C@@H](O)C(=O)N[C@@H](CC(=O)O)C(=O)N[C@@H](C)C(=O)N[C@H](C(=O)N[C@@H](Cc1ccccc1)C(=O)O)C(C)C) [Example 29],57.47
7,H-Glu-Val-Leu-Pns-Asp-Gly-Glu-Phe-OH (H-EVL[β3hPhe(2R-OH)]DGEF-OH; SMILES CC(C)C[C@H](NC(=O)[C@@H](NC(=O)[C@@H](N)CCC(=O)O)C(C)C)C(=O)N[C@@H](Cc1ccccc1)[C@@H](O)C(=O)N[C@@H](CC(=O)O)C(=O)NCC(=O)N[C@@H](CCC(=O)O)C(=O)N[C@@H](Cc1ccccc1)C(=O)O) [Example 43],81.23
8,H-Glu-Val-Leu-Pns-Asp-OH [Example 34],63.71
9,H-Glu-Val-Leu-Pns-Glu-Ala-Glu-Phe-OH (H-EVL[β3hPhe(2R-OH)]EAEF-OH; SMILES CC(C)C[C@H](NC(=O)[C@@H](NC(=O)[C@@H](N)CCC(=O)O)C(C)C)C(=O)N[C@@H](Cc1ccccc1)[C@@H](O)C(=O)N[C@@H](CCC(=O)O)C(=O)N[C@@H](C)C(=O)N[C@@H](CCC(=O)O)C(=O)N[C@@H](Cc1ccccc1)C(=O)O) [Example 15],54.52
10,H-Glu-Val-Leu-Pns-Gly-Ala-Glu-Phe-OH (H-EVL[β3hPhe(2R-OH)]GAEF-OH; SMILES CC(C)C[C@H](NC(=O)[C@@H](NC(=O)[C@@H](N)CCC(=O)O)C(C)C)C(=O)N[C@@H](Cc1ccccc1)[C@@H](O)C(=O)NCC(=O)N[C@@H](C)C(=O)N[C@@H](CCC(=O)O)C(=O)N[C@@H](Cc1ccccc1)C(=O)O) [Example 42],56.72
11,β-ODap-Val-Leu-Pns-Asp-Ala-Gly-Phe-OH ({β‑ODap}-VL[β3hPhe(2R-OH)]DAGF-OH) [Example 63],96.66

# Same assay, conditions: pH 5, 100 µM
row,Substance,Activity (BACE1 inhibition %) [%]
1,H-Glu-Val-Leu-Pns-Asp-Ala-Gly-Phe-OH [Example 44],56.30
